Assay results reported in the supplement of paper PMC7877785.
± gives the uncertainty stated by the source.

Assay: self-splicing fitness, log relative to wild type (ln ratio); higher = more splicing; Tetrahymena group I intron in knt gene, E. coli kanamycin selection, DiMSum; sequences stand for … in CUCUCU…GGAGGGAAAAGUUAUCAGGCAUGCACCUGGUAGCUAGUCUUUAAACCAAUAGAUUGCAUCGGUUUAAAAGGCAAGACCGUCAAAUUGCGGGAAAGGGGUCAACAGCCGUUCAGUACCAAGUCUCAGGGGAAACUUUGAGAUGGCCUUGCAAAGGGUAUGGUAAUAAGCUGACGGACAUGGUCCUAACCACGCAGCCAAGUCCUAAGUCAACAGAUCUUCUGUUGAUAUGGAUGCAGUUCACAGACUAAAUGUCGGUCGGGGAAGAUGUAUUCUUCUCAUAAGAUAUAGUCGGACCUCUCCUUAAUGGGAGCUAGCGGAUGAAGUGAUGCAACACUGGAGCCGCUGGGAACUAAUUUGUAUGCGAAAGUAUAUUGAUUAGUUUUGGAGUACUCGUGGUCG
In short: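 Library with all eight P1ex-region intron nucleotides randomised, intron inside the knt kanamycin-resistance gene on pET-22b(+), in E. coli BL21(DE3). Cells grew overnight at 37°C or 30°C on LB agar with or without 25 μg/mL kanamycin (plus 100 μg/mL carbenicillin, 50 μM IPTG, 0.2% rhamnose), in six replicate transformations. Pooled colonies were amplicon-sequenced on Illumina HiSeq 2500. DiMSum fitness is the error-weighted combination of wild-type-normalised replicate fold changes, kanamycin versus none.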

Row | Sequence | self-splicing fitness (ln) (30 °C) | self-splicing fitness (ln) (37 °C)
1 | UAGAAGCAAUAUUACGAAAU | -3.48 ± 0.24 | -1.95 ± 0.21
2 | UAGAAGCAAUAUUACGACAG | -0.764 ± 0.12 | -0.152 ± 0.14
3 | UAGAAGCAAUAUUACGACGC | -1.84 ± 0.33 | -1.21 ± 0.24
4 | UAGAAGCAAUAUUACGAGCA | -1.27 ± 0.096 | 0.167 ± 0.1
5 | UAGAAGCAAUAUUACGAGCC | – | -2.23 ± 0.26
6 | UAGAAGCAAUAUUACGAGGG | -3.17 ± 0.18 | -2.62 ± 0.21
7 | UAGAAGCAAUAUUACGAUAG | -1.57 ± 0.15 | -0.522 ± 0.15
8 | UAGAAGCAAUAUUACGAUCU | -1.11 ± 0.12 | -0.261 ± 0.16
9 | UAGAAGCAAUAUUACGAUGC | -1.9 ± 0.24 | -0.852 ± 0.2
10 | UAGAAGCAAUAUUACGCAAU | -2.51 ± 0.16 | -1.04 ± 0.24
11 | UAGAAGCAAUAUUACGCACA | -0.416 ± 0.098 | -0.144 ± 0.16
12 | UAGAAGCAAUAUUACGCACG | -0.11 ± 0.23 | -0.0394 ± 0.23
13 | UAGAAGCAAUAUUACGCAGU | -4.08 ± 0.29 | -2.07 ± 0.25
14 | UAGAAGCAAUAUUACGCGUG | -1.17 ± 0.13 | -0.211 ± 0.13
15 | UAGAAGCAAUAUUACGCUAA | -1.42 ± 0.12 | -0.983 ± 0.1
16 | UAGAAGCAAUAUUACGCUUC | -2.27 ± 0.18 | -2.81 ± 0.22
17 | UAGAAGCAAUAUUACGGAUU | -1.57 ± 0.11 | -1.37 ± 0.15
18 | UAGAAGCAAUAUUACGGCAC | -2.42 ± 0.09 | -1.89 ± 0.095
19 | UAGAAGCAAUAUUACGGCGA | 0.119 ± 0.22 | -0.385 ± 0.24
20 | UAGAAGCAAUAUUACGGGGC | -3.58 ± 0.39 | -1.6 ± 0.21
21 | UAGAAGCAAUAUUACGGUAU | -3.08 ± 0.2 | -2.55 ± 0.17
22 | UAGAAGCAAUAUUACGGUUC | -3.98 ± 0.25 | -2.31 ± 0.19
23 | UAGAAGCAAUAUUACGUACA | -0.549 ± 0.14 | 0.208 ± 0.16
24 | UAGAAGCAAUAUUACGUCAA | -2.08 ± 0.16 | -0.86 ± 0.12
25 | UAGAAGCAAUAUUACGUCGC | -3.7 ± 0.38 | -2.21 ± 0.32

Row | Sequence | self-splicing fitness (ln) (30 °C) | self-splicing fitness (ln) (37 °C)
26 | UAGAAGCAAUAUUACGUCGU | -1.75 ± 0.097 | -0.904 ± 0.1
27 | UAGAAGCAAUAUUACGUCUU | -1.18 ± 0.072 | -0.782 ± 0.085
28 | UAGAAGCAAUAUUACGUUCU | -1.61 ± 0.11 | -1.08 ± 0.11
29 | UAGAAGCAAUAUUACGUUUA | -1.21 ± 0.11 | -0.575 ± 0.098
30 | UAGCAGCAAUAUUACGAAAG | -2.58 ± 0.21 | -1.73 ± 0.25
31 | UAGCAGCAAUAUUACGAAGA | -1.64 ± 0.14 | -1.29 ± 0.13
32 | UAGCAGCAAUAUUACGACCG | -0.887 ± 0.13 | -0.0437 ± 0.22
33 | UAGCAGCAAUAUUACGACUC | -0.27 ± 0.091 | 0.54 ± 0.12
34 | UAGCAGCAAUAUUACGCCAA | -1.78 ± 0.12 | -0.98 ± 0.1
35 | UAGCAGCAAUAUUACGCCAU | -4.36 ± 0.3 | -2.32 ± 0.14
36 | UAGCAGCAAUAUUACGCGGG | -2.24 ± 0.14 | -2.04 ± 0.2
37 | UAGCAGCAAUAUUACGCUCG | -1 ± 0.12 | 0.142 ± 0.14
38 | UAGCAGCAAUAUUACGCUUA | -0.452 ± 0.084 | -0.689 ± 0.087
39 | UAGCAGCAAUAUUACGGACC | -1.74 ± 0.18 | -1.67 ± 0.29
40 | UAGCAGCAAUAUUACGGAUA | -0.783 ± 0.081 | -0.203 ± 0.1
41 | UAGCAGCAAUAUUACGGAUU | -3.22 ± 0.14 | -1.08 ± 0.13
42 | UAGCAGCAAUAUUACGGCAU | -1.29 ± 0.081 | -0.191 ± 0.089
43 | UAGCAGCAAUAUUACGGGAA | -2.47 ± 0.19 | -1.41 ± 0.18
44 | UAGCAGCAAUAUUACGGGCC | -1.45 ± 0.21 | -2.55 ± 0.36
45 | UAGCAGCAAUAUUACGGGGU | -3.72 ± 0.14 | -2.99 ± 0.16
46 | UAGCAGCAAUAUUACGGGUA | -0.507 ± 0.052 | 0.13 ± 0.057
47 | UAGCAGCAAUAUUACGGUGG | -1.85 ± 0.089 | -1.12 ± 0.1
48 | UAGCAGCAAUAUUACGUAAA | -1.73 ± 0.099 | -1.32 ± 0.13
49 | UAGCAGCAAUAUUACGUAAU | -3.27 ± 0.12 | -0.695 ± 0.089
50 | UAGCAGCAAUAUUACGUGAC | -3.19 ± 0.18 | -3.45 ± 0.28

Row | Sequence | self-splicing fitness (ln) (30 °C) | self-splicing fitness (ln) (37 °C)
51 | UAGCAGCAAUAUUACGUGAG | -0.937 ± 0.035 | -0.228 ± 0.056
52 | UAGCAGCAAUAUUACGUGGG | -3.61 ± 0.11 | -2.42 ± 0.13
53 | UAGCAGCAAUAUUACGUUAA | -2.13 ± 0.099 | -1.15 ± 0.084
54 | UAGCAGCAAUAUUACGUUAG | -3.08 ± 0.12 | -1.34 ± 0.13
55 | UAGCAGCAAUAUUACGUUUG | -1.29 ± 0.077 | -1.12 ± 0.11
56 | UAGCAGCAAUAUUACGUUUU | -2.6 ± 0.12 | -2.31 ± 0.19
57 | UAGGAGCAAUAUUACGAGAG | -3.02 ± 0.21 | –
58 | UAGGAGCAAUAUUACGAUAU | -3.96 ± 0.33 | -2.46 ± 0.28
59 | UAGGAGCAAUAUUACGCAAU | – | -1.73 ± 0.38
60 | UAGGAGCAAUAUUACGCCAU | -3.74 ± 0.43 | -2.72 ± 0.48
61 | UAGGAGCAAUAUUACGCGGC | -2.42 ± 0.39 | –
62 | UAGGAGCAAUAUUACGCUAA | – | -1.57 ± 0.41
63 | UAGGAGCAAUAUUACGCUCA | -1.55 ± 0.19 | -1.37 ± 0.16
64 | UAGGAGCAAUAUUACGCUUU | -2.54 ± 0.32 | -1.66 ± 0.29
65 | UAGGAGCAAUAUUACGGACU | -3.22 ± 0.25 | -2.41 ± 0.22
66 | UAGGAGCAAUAUUACGGAGG | -4.35 ± 0.42 | -2.73 ± 0.32
67 | UAGGAGCAAUAUUACGGUUG | -3.11 ± 0.36 | -2.4 ± 0.24
68 | UAGGAGCAAUAUUACGUACA | -2.47 ± 0.22 | -0.906 ± 0.18
69 | UAGGAGCAAUAUUACGUGGG | -3.17 ± 0.24 | -3.32 ± 0.38
70 | UAGGAGCAAUAUUACGUUAG | -3.8 ± 0.3 | -2.71 ± 0.49
71 | UAGGAGCAAUAUUACGUUCA | -2.05 ± 0.16 | -1.02 ± 0.19
72 | UAGUAGCAAUAUUACGAACG | -0.961 ± 0.13 | -0.0932 ± 0.15
73 | UAGUAGCAAUAUUACGACGC | -3.61 ± 0.25 | -0.996 ± 0.21
74 | UAGUAGCAAUAUUACGACUA | -0.0384 ± 0.12 | 0.251 ± 0.12
75 | UAGUAGCAAUAUUACGAGUA | -1.44 ± 0.11 | -0.61 ± 0.084

Row | Sequence | self-splicing fitness (ln) (30 °C) | self-splicing fitness (ln) (37 °C)
76 | UAGUAGCAAUAUUACGAUAC | -2.73 ± 0.44 | –
77 | UAGUAGCAAUAUUACGAUCA | -0.544 ± 0.088 | 0.306 ± 0.12
78 | UAGUAGCAAUAUUACGAUGA | -1.59 ± 0.26 | -1.7 ± 0.28
79 | UAGUAGCAAUAUUACGCCGU | -2.58 ± 0.24 | -2.23 ± 0.3
80 | UAGUAGCAAUAUUACGCUAA | -2.12 ± 0.28 | -1.3 ± 0.15
81 | UAGUAGCAAUAUUACGCUUC | – | -1.91 ± 0.37
82 | UAGUAGCAAUAUUACGGCAA | -0.858 ± 0.15 | -1.04 ± 0.16
83 | UAGUAGCAAUAUUACGGGUG | -0.96 ± 0.071 | -0.773 ± 0.079
84 | UAGUAGCAAUAUUACGGUAG | -2.56 ± 0.18 | -1.73 ± 0.22
85 | UAGUAGCAAUAUUACGGUCA | -0.074 ± 0.16 | -0.852 ± 0.18
86 | UAGUAGCAAUAUUACGUAAA | -3.01 ± 0.21 | -1.03 ± 0.15
87 | UAGUAGCAAUAUUACGUAAC | -3.54 ± 0.15 | -1.89 ± 0.15
88 | UAGUAGCAAUAUUACGUACG | -1.24 ± 0.16 | 0.127 ± 0.16
89 | UAGUAGCAAUAUUACGUACU | -0.816 ± 0.12 | -0.109 ± 0.12
90 | UAGUAGCAAUAUUACGUCGG | -2.04 ± 0.08 | -1.53 ± 0.12
91 | UAGUAGCAAUAUUACGUGCA | -0.861 ± 0.12 | -0.189 ± 0.11
92 | UAGUAGCAAUAUUACGUGUC | – | -2.22 ± 0.34
93 | UAUAAGCAAUAUUACGAAAA | -1.72 ± 0.31 | -1.27 ± 0.31
94 | UAUAAGCAAUAUUACGACUU | -0.386 ± 0.13 | -0.681 ± 0.13
95 | UAUAAGCAAUAUUACGAGGC | – | -2.5 ± 0.39
96 | UAUAAGCAAUAUUACGAUAG | -1.4 ± 0.16 | -0.486 ± 0.17
97 | UAUAAGCAAUAUUACGAUGU | -2.49 ± 0.11 | -1.71 ± 0.12
98 | UAUAAGCAAUAUUACGCCCU | -1.15 ± 0.16 | 0.38 ± 0.16
